Patent US20170183639A1

Target: purified human recombinant Src (human) (UniProt P12931)
Assay: in vitro competition; Src pre-incubated with peptide, GST-CD2 pull-down as competitor

Substance “pNaSH2 (TAT-tagged CD2-derived peptide phosphorylated at Y260)” has an IC50 of 500 nM.
